Assay results: article PMC9785301

Biological target: AjFER-D129A/E132A mutant (Apostichopus japonicus)
Experiment: crystal structure; M3 at approx. 15 mg/mL in 25 mM Tris-HCl, pH 8.0, 150 mM NaCl; crystals from 0.05 M cadmium sulfate hydrate, 0.1 M HEPES, pH 7.5, 1.0 M sodium acetate trihydrate, 18 °C; assembly of subunits into the cage

Substance: AjFER-D129A/E132A mutant
- stoichiometry N: 24
